Assay results as given in patent publication US20250059288A1 (GRANITE BIO, published 2025).

Legend:
[1] = target: T1, Marmoset CCR2b (Marmo-CCR2b) (marmoset monkey (Callithrix jacchus)); experiment: summary table; affinity to CCR2 expressed on marmoset PBMCs
T1 construct: On transfected CHO cells and, as native CCR2, on marmoset monocytes (splenocytes, PBMCs)
T1 chain: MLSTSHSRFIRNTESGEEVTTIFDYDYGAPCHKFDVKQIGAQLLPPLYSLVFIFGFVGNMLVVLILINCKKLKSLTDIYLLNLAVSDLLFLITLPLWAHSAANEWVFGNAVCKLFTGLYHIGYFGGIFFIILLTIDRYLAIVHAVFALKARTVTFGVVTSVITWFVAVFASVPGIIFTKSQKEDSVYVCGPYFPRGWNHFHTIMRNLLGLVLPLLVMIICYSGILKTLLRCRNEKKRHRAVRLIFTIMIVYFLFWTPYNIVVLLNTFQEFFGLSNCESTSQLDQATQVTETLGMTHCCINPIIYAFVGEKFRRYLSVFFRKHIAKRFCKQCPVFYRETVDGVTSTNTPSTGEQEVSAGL

Rhesus CCR2b (rh-CCR2B) = target: T2, Rhesus CCR2b (rh-CCR2B) (rhesus monkey (Macaca mulatta), UniProt O18793 1-360); experiment: flow cytometry on stably transfected CHO cells
T2 construct: On stably transfected CHO cells
T2 sequence: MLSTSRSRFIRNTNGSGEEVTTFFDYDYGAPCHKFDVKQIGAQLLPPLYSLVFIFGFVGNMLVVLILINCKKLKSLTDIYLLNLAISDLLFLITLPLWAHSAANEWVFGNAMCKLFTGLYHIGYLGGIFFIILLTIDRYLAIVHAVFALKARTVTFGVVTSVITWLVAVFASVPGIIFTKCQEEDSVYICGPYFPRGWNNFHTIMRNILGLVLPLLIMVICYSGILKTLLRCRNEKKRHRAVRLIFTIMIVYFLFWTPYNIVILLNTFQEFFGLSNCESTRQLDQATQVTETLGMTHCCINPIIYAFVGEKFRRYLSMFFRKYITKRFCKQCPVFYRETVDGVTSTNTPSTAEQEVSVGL
Method: (§1) To further investigate the specificity of the antibodies of the present invention, binding of Y4T3 to various CCR2 constructs was tested. […] Untransfected CHO cells (empty) were also analyzed. Antibodies were tested at concentration of 10 μg/ml and incubated with the cells for 30 min on ice. After 3 washing steps with cold PBS, the bound antibodies were detected with a PE-labeled polyclonal rabbit anti-mouse immunoglobulins antibody (R0439 from Agilent Dako, diluted 1:200 in PBS) for 30 min on ice. After two washing steps with PBS, cells were analyzed by flow cytometry. Mean fluorescence intensity for PE was determined on cells and is depicted.

[2] = target: T3, Human CCR2b with the ECL2 domain of CCR2b of rhesus monkey (ECL2-hCCR2b) (human, with rhesus monkey ECL2 domain, UniProt O18793 1-360 (rhesus entry)); experiment: flow cytometry on stably transfected CHO cells
T3 construct: On stably transfected CHO cells
T3 chain: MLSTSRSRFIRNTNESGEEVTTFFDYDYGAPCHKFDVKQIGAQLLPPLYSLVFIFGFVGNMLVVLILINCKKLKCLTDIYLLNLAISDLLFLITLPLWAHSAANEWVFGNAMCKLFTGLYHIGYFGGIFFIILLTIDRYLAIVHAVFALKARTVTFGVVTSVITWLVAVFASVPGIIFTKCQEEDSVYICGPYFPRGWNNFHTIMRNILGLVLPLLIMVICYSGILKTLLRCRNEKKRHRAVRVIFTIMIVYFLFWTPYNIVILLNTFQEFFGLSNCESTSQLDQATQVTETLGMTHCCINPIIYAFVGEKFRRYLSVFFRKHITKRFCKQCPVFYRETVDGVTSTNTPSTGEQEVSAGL
Method: as §1

Human CCR5 [3] = target: T4, Human CCR5 (human, UniProt P51681 1-352); experiment: summary table; binding to human CCR5
T4 construct: On transfected CHO cells; also called CD195

[4] = target: T5, Human CCR2b with ECL3 domain of CCR2b of rhesus monkey (human, with rhesus monkey ECL3 domain, UniProt O18793 1-360 (rhesus entry)); experiment: flow cytometry on stably transfected CHO cells, 10 µg/ml
T5 construct: On stably transfected CHO cells
T5 chain: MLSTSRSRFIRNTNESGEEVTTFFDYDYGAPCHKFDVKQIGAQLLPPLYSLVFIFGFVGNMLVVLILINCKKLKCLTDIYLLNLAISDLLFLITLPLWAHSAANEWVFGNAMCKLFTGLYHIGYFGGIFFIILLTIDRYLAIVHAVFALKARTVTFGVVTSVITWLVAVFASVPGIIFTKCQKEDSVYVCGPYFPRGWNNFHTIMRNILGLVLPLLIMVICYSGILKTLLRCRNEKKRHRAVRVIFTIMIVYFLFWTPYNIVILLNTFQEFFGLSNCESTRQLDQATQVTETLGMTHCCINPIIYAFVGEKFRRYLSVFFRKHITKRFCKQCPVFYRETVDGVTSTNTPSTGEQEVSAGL
Method: as §1

[5] = target: T6, Human CCR2b with the N-terminus of CCR2b of rhesus monkey (human, with rhesus monkey N-terminus, UniProt O18793 1-360 (rhesus entry)); experiment: as above
T6 construct: On stably transfected CHO cells
T6 chain: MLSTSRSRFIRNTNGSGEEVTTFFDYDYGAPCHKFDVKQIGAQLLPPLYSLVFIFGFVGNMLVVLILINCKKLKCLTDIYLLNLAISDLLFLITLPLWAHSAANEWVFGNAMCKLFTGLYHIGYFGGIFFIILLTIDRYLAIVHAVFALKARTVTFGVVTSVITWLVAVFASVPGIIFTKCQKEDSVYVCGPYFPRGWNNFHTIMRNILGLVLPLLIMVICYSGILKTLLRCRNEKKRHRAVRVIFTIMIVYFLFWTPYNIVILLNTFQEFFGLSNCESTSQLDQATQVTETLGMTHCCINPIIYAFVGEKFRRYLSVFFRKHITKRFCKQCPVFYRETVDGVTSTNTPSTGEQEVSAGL
Method: as §1

Human CCR2b (hCCR2b) [6] = target: T7, Human CCR2b (hCCR2b) (human, UniProt P41597-2 1-360); experiment: flow cytometry on human whole blood, classical monocytes, median fluorescence intensity
T7 construct: also called CD192; MCP-1 receptor
T7 sequence: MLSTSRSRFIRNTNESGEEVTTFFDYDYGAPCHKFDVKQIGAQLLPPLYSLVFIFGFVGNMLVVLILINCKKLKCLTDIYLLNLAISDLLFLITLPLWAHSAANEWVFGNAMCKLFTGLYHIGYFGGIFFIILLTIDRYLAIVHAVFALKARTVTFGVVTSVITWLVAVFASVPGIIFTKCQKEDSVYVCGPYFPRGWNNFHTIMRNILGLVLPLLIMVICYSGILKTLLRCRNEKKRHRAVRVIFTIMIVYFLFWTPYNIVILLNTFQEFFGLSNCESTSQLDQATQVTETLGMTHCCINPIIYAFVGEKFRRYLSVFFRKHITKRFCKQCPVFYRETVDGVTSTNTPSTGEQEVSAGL
Method: Human heparinized whole blood was incubated with the indicated antibodies for 45 min on ice, washed three times with cold PBS, then stained with secondary PE-labeled rabbit-anti-mouse Ig (R0439, DakoCytomation 1:200) for 30 min on ice, washed 3 times with cold PBS. The 10% mouse serum was added for 10 min and after that directly labeled antibodies against CD3-APCCy7, CD8-PE-Cy7, CD4-V500, CD123-PerCP, CD304-APC, CD116-FITC, CD16-PB. After washing and lysis of red blood cells with BD Lysing solution cells were acquired on a FACSCanto-II and analyzed by FACS-DIVA software. Classical monocytes were identified by light scatter properties, expression of CD116 and absence of CD16 and CD123. Median fluorescence intensity for PE is depicted on classical monocytes.

Human CCR5 [7] = target: T4, Human CCR5; experiment: flow cytometry on CHO cells transfected with human CCR5
[8] = target: T1, Marmoset CCR2b (Marmo-CCR2b); experiment: flow cytometry on marmoset splenocytes (legend of FIG. 8)
Human CCR2b (hCCR2b) [9] = target: T7, Human CCR2b (hCCR2b); experiment: flow cytometry on human whole blood, 0.5 µg/ml
Text: Y4T3 was humanized by CDR-grafting resulting in hY4T3. Databases of Human IgG sequences and human germline sequences were searched for comparison to the murine VH domain and VL domain using BLAST search algorithms, and candidate human variable domains selected from the top 200 BLAST results. These were reduced to five candidates for VH (HC1-HC5 or H1-H5) and five candidates for VL (LC1-LC5 or L1-L5) based on a combination of framework homology, maintaining key framework residues and canonical loop structure. In total 25 humanized variants of Y4T3 were generated. The humanized Y4T3 variants were tested for binding to human CCR2+ monocytes in whole human blood by flow cytometry. 60 μl of lithium-heparin anticoagulated human whole blood was incubated for 45 min on ice with the indicated antibodies at 0.5 μg/ml in PBS. After three washing steps with cold PBS the bound antibodies were detected with PE-F(ab)2 goat anti human IgG (Jackson ImmunoResearch, 109-116-098) together with directly labeled antibodies against CD8, CD4, CD123 and CD116. After 2 washing steps with 0.9% NaCl red blood cells were lysed with Lysing Solution (BDBioscience) for 10 min in the dark. Cells were washed once with PBS and analyzed by flow cytometry to identify CCR2 expression on various cell types including monocytes. Mean fluorescence intensity (MFI) for PE was determined for these cell populations and is depicted.

Mouse CCR2 = target: T8, Mouse CCR2 (mouse, UniProt P51683 1-373); experiment: flow cytometry on mouse CCR2 CHO cells, various concentrations
T8 construct: whole, on cells
Method: Mouse CCR2 CHO cells and human CCR2 CHO cells were incubated for 45 min on ice with PBS or various concentrations of hY4T3. After 3 washing steps with cold PBS, cells were stained PE-F(ab)2 goat anti human IgG (1:300; Jackson, Cat.No.109-116-098) for 30 min on ice. After 3 washing steps with cold PBS cells were analyzed by FACS to measure mean fluorescence intensity (MFI).

T4 sequence (P51681 whole entry): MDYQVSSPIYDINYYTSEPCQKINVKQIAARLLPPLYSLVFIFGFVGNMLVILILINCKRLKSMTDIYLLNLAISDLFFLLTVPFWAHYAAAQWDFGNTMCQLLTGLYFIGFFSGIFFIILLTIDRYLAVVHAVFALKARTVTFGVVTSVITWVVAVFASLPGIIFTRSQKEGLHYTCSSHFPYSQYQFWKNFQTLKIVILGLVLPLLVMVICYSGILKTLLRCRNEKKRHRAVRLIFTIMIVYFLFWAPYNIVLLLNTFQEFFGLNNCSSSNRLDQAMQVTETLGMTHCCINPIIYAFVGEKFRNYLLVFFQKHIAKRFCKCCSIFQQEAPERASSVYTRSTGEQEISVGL
T8 sequence (P51683 whole entry): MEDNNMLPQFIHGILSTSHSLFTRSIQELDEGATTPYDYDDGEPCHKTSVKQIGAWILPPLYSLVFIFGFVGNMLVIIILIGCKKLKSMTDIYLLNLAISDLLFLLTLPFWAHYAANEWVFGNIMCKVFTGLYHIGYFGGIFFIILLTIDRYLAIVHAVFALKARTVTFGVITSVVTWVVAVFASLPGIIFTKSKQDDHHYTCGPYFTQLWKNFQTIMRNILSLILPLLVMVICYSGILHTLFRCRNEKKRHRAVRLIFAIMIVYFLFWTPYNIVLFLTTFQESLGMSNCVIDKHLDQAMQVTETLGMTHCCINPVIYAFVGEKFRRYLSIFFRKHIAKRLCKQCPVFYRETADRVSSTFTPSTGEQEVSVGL

B1: Antibody Y4T3 (antibody, V domains shown)
VH: QVHLQQSGTELARPGASIKLSCKTSGSTFTRYTMHWIKQRPGQGLEWIGFIVPSTGYTKYNQKFKDKATLTADKSSSTAYMHLNSLTSEDSALYYCARNKEVDYGASWGQGTLVTVSA
VL: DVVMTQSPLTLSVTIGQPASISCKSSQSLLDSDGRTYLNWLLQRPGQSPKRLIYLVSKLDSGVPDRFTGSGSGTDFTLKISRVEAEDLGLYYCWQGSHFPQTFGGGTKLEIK
notes: also called Y3T3 [sic]; Y4T4 [sic]
B1: binds [1]; no binding (tested: 10 µg/ml) (Rhesus CCR2b (rh-CCR2B)); no binding (tested: 10 µg/ml) [2]. B1: no binding (Human CCR5 [3]); binds [4]; binds [5]. For the same binder, the “fold higher affinity than the tested prior art antibodies (DOC2, 1D9, Clone 48607)” value (Human CCR2b (hCCR2b) [6]) was over 5 fold.

B2: human IgG1 chimeric variant of Y4T3 (Y4T3-chim) (antibody, V domains shown)
VH: QVHLQQSGTELARPGASIKLSCKTSGSTFTRYTMHWIKQRPGQGLEWIGFIVPSTGYTKYNQKFKDKATLTADKSSSTAYMHLNSLTSEDSALYYCARNKEVDYGASWGQGTLVTVSA
VL: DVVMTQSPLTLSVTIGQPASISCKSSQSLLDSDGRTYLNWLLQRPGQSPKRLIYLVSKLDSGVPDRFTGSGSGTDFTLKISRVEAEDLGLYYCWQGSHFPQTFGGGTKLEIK
notes: also called H0L0
B2: no binding (tested: 10 µg/ml and 1 µg/ml) (Human CCR5 [7]).

B3: hY4T3 (humanized Y4T3, variant H3L1) (antibody, V domains shown)
VH: QVQLVQSGAEVKKPGASVKVSCKASGSTFTRYTMHWVRQAPGQRLEWIGFIVPSTGYTKYNQKFKDRVTITRDTSASTAYMELSSLRSEDTAVYYCARNKEVDYGASWGQGTLVTVSS
VL: DVVMTQSPLSLPVTLGQPASISCKSSQSLLDSDGRTYLNWFQQRPGQSPRRLIYLVSKLDSGVPDRFSGSGSGTDFTLKITRVEAEDVGVYYCWQGSHFPQTFGQGTKVEIK
notes: detected with anti-human IgG; Human IgG1 is named as the preferred class
B3: binds [8]; binds (Human CCR2b (hCCR2b) [9]); no binding (tested: 10 µg/ml and 1 µg/ml) (Human CCR5 [7]). B3: no binding (Mouse CCR2).

B4: DOC-2 antibody (antibody, V domains shown)
VH: EVQLVESGGGLVKPGGSLKLSCVASGFTLSNYAMSWVRQSPEKRLEWVAEVSSSGIYIYYSDTVTGRFSISRDNAKNTLYLEMSSLRSEDTAIYYCARDRYAYAMDYWGHGTSVIVSS
VL: DIVMTQSPSSLAISVGQRVTLSCKSSQSLLNSYNQKNSLAWYQQKPGQSPKLLVYFASTRESGVPDRFIGSGSGTYFTLTITSVQAGDLADYFCQQHYSNPRTFGGGTRLEIK
notes: Prior art anti-CCR2 antibody; detected with anti-mouse Ig
B4: binds (Human CCR2b (hCCR2b) [6]).
